# B1: SG-18: 267 amino acid protein (SEQ ID NO:19) encoded by the genome of Clostridium bartlettii sp. nov. (protein, listed as Clostridium bartlettii)
# chain: EVDSSKEQATSKDEKQVVVATSVAITEILDRLGVEVSGVPQTSYELPESAKGATEIGSPMNPDMEIIKSLNPTDVICVDTLGSDFEKQFEENNINADFYNLSNVDGLKETIAALGEKFNKQDKANEILDEIKEVENKVNSNKKSDDKILVLFGAPGSVMVATDKSYIGNLVELAGGNNIFSNATSSFTQINLEEIIKLNPDKILVMTHAVPEAAKKSVEEELSKDLWKNVNAVKNNDITYLENGYFGMSANLQIVEAVEKLGDILYE
# B2: SG-15: 400 amino acid protein (SEQ ID NO:1) encoded by the genome of Eubacterium eligens (protein, listed as Eubacterium eligens)
# chain: EYTEIRTASELVEAAKSASGNYKLMTDIDMTGVEWTPWDFSGTFDGNGHSILNLSVKTVSKKTMKTYDGNRKEYKTYGAGFFGVLTGAKVTGLDIYGARIEITTTEPCFAAPIAGLADDSDISDCIIKDTYVSLTDSAKMWGTGGIAGFGSGNLDNITTDVTLVCVDTDAAVRDEQFMGGAYAAGFLNIRNCSITIDGYDSDHGYVHDGGLVGMYMVYPLELSKTYQGEVLNNKVKGMITFFEDNTDRRAYCQANMGEVMNWTYAYSGFTSDFKRNETYDYSVTLLPEMCSNPSYTDVVTEATASDFGYTTHTCSTCGYTYSDTYTIHEHKVDSYSVVKEAASTDKKDGIEAGTCSLCNQTVYREYAANVVTDDNTQATDNKASGTAVKKGMKESTAVFA
# B3: SG-16: 119 amino acid protein (SEQ ID NO:9) encoded by the genome of Eubacterium eligens (protein, listed as Eubacterium eligens)
# chain: MTGCSGSKEPDNKTSVDYTVVENADLPEELKKLIESKKDKVMRLTYTTKDYTYVVAGYGTRETSGYSIKVNDVYTGDNALYIDLNLIGPAAGEAVNEVETYPVIVLKMERREESVVFKM
# B4: SG-17: 327 amino acid protein (SEQ ID NO:13) encoded by the genome of Eubacterium eligens (protein, listed as Eubacterium eligens)
# chain: CNSKIDVKYDYNVEDYVQLGQYENISVQVDKTSIENELIESKIKQDVEDNTTYTEVDRGAIASDQILVTYTATSSGASLSGLTNTDGKTMILGTDTLGLELDELDQALYGMTPGQTKILIVDIPEDYSSDLYKGTRVVFELTMQTVAQANVPMITNAYVKEAFGYDTVEEYRQSIKESLETDINSKVENKIQEDVLSSLQDTFKISSYPDSLMEETRSRLETSIGFYADFSNLSKDEYCQKQYGLSFDDFVKKSVVQQLIMEAIVKDRNMTMREYDYKGSLDDFAADNGYSNADTFVEKFGKDKIVKAMLVQKAQDYVIEHANISYK
# Experiments:
# [1] = tested on: HCT8 enterocytes and HT29-MTX goblet cells; assay: Epithelial cell wound healing (Oris Cell Migration assay); assay type: cell-based, human; conditions: SG protein 1 μg/ml, EGF 30 ng/ml, staurosporine 100 nM; 48 hours
# Excerpt: HCT8 enterocytes and HT29-MTX goblet cells were used in wound healing studies. The 96 well Oris Cell Migration assay containing plugs preventing cell attachment in the center of each well was used according to the manufacturer's instructions (Platypus Technologies, Madison, WI). The migration assay plates were warmed to room temperature prior to use and plugs were removed from 100% confluence wells prior to cell addition. The HCT8 enterocyte and HT29-MTX goblet cell lines were used at a 9:1 ratio with a total of 5×10^4 total cells added per well (4.5×10^4 HCT8 cells and 0.5×10^4 HT29-MTX cells). […] Plugs were then removed from all control and sample wells. Control wells included cells treated with the diluent vehicle as the blank, 30 ng/ml epidermal growth factor (EGF) as the positive control, and 100 nM staurosporine as the negative control, all diluted in cRPMI. Sample wells contained SG-15 protein at a concentration of 1 μg/ml diluted in cRPMI. 100% and 0% wells were cultured in cRPMI. […] Prior to staining for viable cells, plugs were removed from the 0% wells. Treatment media was removed and cells were washed in PBS containing 0.9 mM CaCl2) and 0.5 mM MgCl2. […] Relative fluorescent values from 100% wells where plugs were removed prior to cell plating were set as the max effect, and 0% wells where plugs remained in place until immediately before staining were used as the baseline. Samples were normalized between 100% and 0% samples and values expressed as a percent growth.
# IL-23 = IL-23 production by monocytes in co-culture TEER assay (Luminex); assay type: cell-based, human; conditions: for IL-23 production normalized to HK E. coli only (set to 1.0): pre-incubated 6 hours prior to HK E. coli, basolateral supernatant
# Method: (§1) Production of the cytokines TNF-α, IL-23, and IL-10 by monocytes was measured in the tissue culture supernatant from the basolateral chamber of the co-culture TEER assay performed in Example 1B. Following TEER readings, the supernatants were centrifuged at 10,000 g for 5 minutes at 4° C. to remove cell debris. Luminex analysis was performed according to the manufacturer's instructions (Magpix instrument and xPonent software version 4.2; Luminex Corporation (Austin, TX)). Luminex analysis was performed to determine the […] concentration of TNF-α and IL-23 produced by monocytes. Luminex analysis utilizes a bead-based system for quantification of multiple cytokines from a single sample. Like an ELISA, Luminex beads are coated with a capture antibody, and incubation with samples allows the target to bind to the capture antibody. Beads are washed and incubated with a fluorescently labeled detection antibody for quantification of bound target. Cytometric analysis is used to differentiate bead populations, which are loaded with differential fluorescent dyes, and to quantify cytokine levels by measuring detection antibody signal. TNF-α, IL-23, and IL-10 production in untreated cells and cells pre-incubated with SG-15 for 6 hours prior to HK E. coli treatment was normalized to pg/ml concentrations elicited by HK E. coli only, which was set to 1.0. […] The graphs in FIGS. 2A, 2B and 2C each represent data pooled from an individual experiment (n=3).
# IL-10 = IL-10 production by monocytes in co-culture TEER assay (Luminex); assay type: cell-based, human; conditions: pre-incubated 6 hours prior to HK E. coli; basolateral supernatant
# Method: as §1
# DSS treated mice [2] = assay: DSS model of inflammatory bowel disease: 4KDa-FITC dextran translocation across the epithelial barrier; assay type: in vivo, C57BL/6 mice; conditions: 50 nmoles/kg i.p. b.i.d., 2.5% DSS 6 days; for 4KDa-FITC dextran in serum compared to DSS mice treated with vehicle: day 6
# Method: Specifically, the mice in Example 1E were treated with dextran sodium sulfate (DSS), a chemical known to induce intestinal epithelial damage and thereby reduce intestinal barrier integrity and function. DSS mice are well-accepted models of colitis. In Example 1E, mice were treated with SG-15 protein approximately concurrent with (6 hours prior to) administration of DSS. The mice were then assessed for effects of SG-15 on clinically relevant markers of improved health. Eight-week old C57BL/6 mice were housed 5 animals were cage and given food and water ad libitum for 7 days. Following the 7-day acclimation period, treatments were initiated concurrently with addition of 2.5% DSS to the drinking water. […] The mice were treated with 2.5% dextran sodium sulfate (DSS) in their drinking water for 6 days. Treatments were continued with SG-15 or […]-GLP2 twice a day (b.i.d.) in the morning and evening (every 8 and 16 hr) with i.p. injections at 50 nmoles/kg. Fresh 2.5% DSS drinking water was prepared every 2 days. On day six, mice were fasted for four hours and then orally gavaged with 600 mg/kg 4 KDa dextran labeled with fluorescein isothiocyanate (FITC) [4KDa-FITC]. One hour after the 4KDa-FITC gavage mice were euthanized, blood was collected and FITC signal was measured in serum. […] Results are shown in FIG. 4, and are presented as mean±SEM. The graph in FIG. 4 represents data pooled from 2 individual experiments (n=20).
# DSS treated mice [3] = assay: DSS model: colon weight to length ratio; assay type: in vivo, C57BL/6 mice; conditions: 2.5% DSS 6 days
# Method: Eight-week old C57BL/6 mice were housed 5 animals were cage and given food and water ad libitum for 7 days. Following the 7-day acclimation period, treatments were initiated concurrently with addition of 2.5% DSS to the drinking water. […] The mice were treated with 2.5% dextran sodium sulfate (DSS) in their drinking water for 6 days. Treatments were continued with SG-15 or […]-GLP2 twice a day (b.i.d.) in the morning and evening (every 8 and 16 hr) with i.p. injections at 50 nmoles/kg. Fresh 2.5% DSS drinking water was prepared every 2 days. Colon length and weight were measured in mice included in the DSS model study described in Example 1E. […] Accordingly, the ratio of tissue weight to length can be used as a readout of DSS induced tissue damage. SG-15 administration to DSS treated mice (Example 1E) reduced the colon weight to length ratio elicited by DSS (DSS=3.9 mg/mm, DSS+SG-15=3.5 mg/mm; p=0.13). […] However, no difference was observed between treated with SG-15 as compared to treatment with […]GLP2. The graph in FIG. 9 represents data pooled from the 2 individual experiments (n=20).
# [4] = tested on: LPS binding protein (LBP); assay: DSS model: LPS binding protein in serum (ELISA); assay type: in vivo, C57BL/6 mice; conditions: 50 nmoles/kg i.p. b.i.d.; 2.5% DSS 6 days
# Method: Eight-week old C57BL/6 mice were housed 5 animals were cage and given food and water ad libitum for 7 days. Following the 7-day acclimation period, treatments were initiated concurrently with addition of 2.5% DSS to the drinking water. […] The mice were treated with 2.5% dextran sodium sulfate (DSS) in their drinking water for 6 days. Treatments were continued with SG-15 or […]-GLP2 twice a day (b.i.d.) in the morning and evening (every 8 and 16 hr) with i.p. injections at 50 nmoles/kg. Fresh 2.5% DSS drinking water was prepared every 2 days. SG-15 was also assessed for its effects on the levels of LPS binding protein (LBP) in the blood of the DSS animal with and without SG-15 administration. LPS binding protein (LBP), which has been linked to clinical disease activity in subjects with inflammatory bowel disease, was also measured by ELISA in the serum of mice tested in the DSS model described in Example 1E. […] Results are shown in FIG. 5, and are presented as mean±SEM. The graph in FIG. 5 represents data pooled from the 2 individual experiments (n=20).
# [5] = DSS+SG protein, 50 nmoles/kg i.p. b.i.d., unit not given
Molecule,"Wound healing, percent growth [1]",IL-23 production normalized to HK E. coli only (set to 1.0) (IL-23),IL-10 production normalized to HK E. coli only (set to 1.0) (IL-10),4KDa-FITC dextran translocation compared to positive control Gly2-GLP2 (DSS treated mice [2]),4KDa-FITC dextran in serum compared to DSS mice treated with vehicle (DSS treated mice [2]),Colon weight to length ratio (DSS treated mice [3]; [5]),LBP in serum compared to DSS mice treated with vehicle [4],IL-23 production compared with control cells treated with media only (IL-23; cells treated with SG-15 and HK E. coli),"Colon weight to length ratio, SG protein compared with Gly2-GLP2 (DSS treated mice [3]; 50 nmoles/kg i.p. b.i.d.)","Colon weight to length ratio (DSS treated mice [3]; DSS+SG-15, 50 nmoles/kg i.p. b.i.d.) [mg/mm]",Impact on LBP concentration compared to control peptide Gly2-GLP2 [4]
B1,slight increase in growth,1.10,0.93,even lower than the positive control,significant reduction in 4KDa-FITC dextran,3.3,,,,,
B2,significant increase in growth,0.57,0.66,,significant reduction in 4KDa-FITC dextran,,significant reduction in LBP,no significant difference,no difference,3.5,
B3,significant increase in growth,1.06,1.23,,significant reduction in 4KDa-FITC dextran,4.1,No change in LBP,,,,
B4,significant increase in growth,1.10,0.51,,not altered,3.14,significant reduction in LBP,,,,greater impact on LBP concentration
